Measured values as given in patent US20220387487A1, “COMPOSITIONS AND METHODS FOR TREATMENT OF CANCER” (Aleta Biotherapeutics Inc., priority 2019, published 2022).
Positions count from the first letter of the chain named.

Legend:
CLEC12A K form = molecular target: T1, CLEC12A K form (Homo sapiens, UniProt Q5QGZ9); assay: Flow cytometry binding to HEK-293T cells transfected with CLEC12A amino acid 254 K version; settings: FIG. 19
T1 construct: transfected with full-length CLEC12A (UniProt Q5QGZ9-1) cDNAs; host or cells: HEK-293T
T1 sequence (Q5QGZ9 1-275 isoform Q5QGZ9-1): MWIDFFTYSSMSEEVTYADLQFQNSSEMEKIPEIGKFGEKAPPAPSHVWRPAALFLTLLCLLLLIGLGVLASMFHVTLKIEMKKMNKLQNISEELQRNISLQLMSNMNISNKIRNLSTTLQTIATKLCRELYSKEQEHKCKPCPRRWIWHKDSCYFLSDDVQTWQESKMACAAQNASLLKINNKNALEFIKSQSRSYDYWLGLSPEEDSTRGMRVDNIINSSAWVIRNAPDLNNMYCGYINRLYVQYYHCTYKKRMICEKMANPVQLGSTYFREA
Method: (§1) Given the unique binding properties of VHH clone 2H3 relative to the anti-CLEC12A scFv we tested the binding properties of a biparatopic fusion protein containing both the VHH clone 2H3 and an anti-CLEC12A scFv. HEK-293T cells were transfected with full-length CLEC12A (UniProt Q5QGZ9-1) cDNAs expressing the amino acid 254 “K” version of CLEC12A (GenScript) or a version with “Q” at this position generated by mutagenesis. The cells were removed with Accutase and washed with PBS, suspended in 50 μL FACS buffer (FB, PBS+1% BSA and 0.1% sodium azide) and blocked with human Fc block (Becton Dickinson) at room temperature for 10 minutes. Then, 50 μl of the purified fusion proteins #186, #330 or #357 diluted in FACS buffer (starting at 3 μg/ml with 3 fold dilutions) were added. The cell/fusion protein mixture was incubated for 30 minutes at 4° C. and then washed twice with FACS buffer. The cells were suspended in 100 μl of FACS buffer, stained with HIB19-PE (BioLegend […]), and incubated for 30 minutes at 4° C. The cells were washed twice with FACS buffer, fixed with a final concentration of 1% PFA in PBS (Thermo Scientific) and then analyzed by flow cytometry.

CLEC12A Q form = molecular target: T2, CLEC12A Q form (Homo sapiens, UniProt Q5QGZ9, K244Q); assay: Flow cytometry binding to HEK-293T cells transfected with CLEC12A amino acid 254 Q version; settings: FIG. 19
T2 construct: transfected with full-length CLEC12A (UniProt Q5QGZ9-1) cDNAs; expressed in transfected cells; host or cells: HEK-293T
T2 sequence (Q5QGZ9 1-275 isoform Q5QGZ9-1 K254Q): T1 sequence (Q5QGZ9 1-275 isoform Q5QGZ9-1) with K254Q
Method: as §1

CLEC12A = molecular target: T3, CLEC12A (Homo sapiens, UniProt Q5QGZ9, K244Q); assay: ELISA of fusion proteins, FMC63 coat, biotinylated CLEC12A detection; assay type: binding
T3 sequence (Q5QGZ9 65-265 K244Q): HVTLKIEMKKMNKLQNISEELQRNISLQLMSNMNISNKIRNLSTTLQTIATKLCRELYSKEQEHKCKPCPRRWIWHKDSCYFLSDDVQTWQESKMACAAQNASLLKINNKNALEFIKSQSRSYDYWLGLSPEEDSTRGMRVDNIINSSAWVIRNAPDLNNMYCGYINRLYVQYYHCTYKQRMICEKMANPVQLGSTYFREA

[1] = test system: CLL-1 positive U937 cells; assay: Flow cytometry binding of fusion proteins to U937 cells (FMC63-PE detection); parameters: species or system human; settings: FIG. 20
Method: The ability of an expressed biparatopic construct comprising the fusion protein containing a CD19 variant, an anti-CLL-1 scFv, and an anti-CLL-1 VHH (#357) to bind CLL-1 positive U937 cells was evaluated relative to the binding of an expressed construct containing a fusion protein comprised of a CD19 variant and an anti-CLL-1 VHH (#330) and an expressed construct containing a fusion protein comprised of a wild type CD19 and an anti-CLL-1 scFv (#186). […] Approximately 5×10^5 cells were aliquoted per sample. The cells were spun, washed with FB, and then suspended in 100 μl of the biparatopic or monospecific fusion protein dilution (supernatant or purified starting at 10 μg/ml) in FB. The cell/fusion protein mixture was incubated for 30 minutes at 4° C. and then washed 2× with FB. […] After washing 2× with FB, the cells were fixed with a final concentration of 1% PFA in PBS (Thermo Scientific) and then analyzed by flow cytometry (Accuri C6, Becton-Dickinson).
To further confirm the binding and cytotoxicity capabilities of an expressed biparatopic fusion protein comprising a CD19 variant, an anti-CLL-1 scFv, and an anti-CLL-1 VHH, a construct was generated with the same features as construct #357 but lacking the HIS tag. […] The cells were washed twice with FACS buffer, fixed with a final concentration of 1% PFA in PBS (Thermo Scientific) and then analyzed by flow cytometry. […]

B1: #330: fusion protein comprised of a CD19 variant and an anti-CLL-1 VHH (2H3); SEQ ID NO:305 (protein)
chain: MEFGLSWVFLVALFRGVQCQVQLQESGGGLVQAGGSLRLSCVASGSIRSINVMGWYRQAPGKQRELVAACASDGNTYYADSVKGRFTISRDNAEKTVYLQMNNLKPDDTAVYYCDANSRGNYYSGQGTQVTVSSTSGPGGQGAGGGGSGGGGSGGGGSGGGGSPEEPLVVKVEEGDTAALWCLKGTSDGPTQQLTWSRESPLKPFLKYSLGVPGLGVHVRPDAISVVIRNVSQQMGGFYLCQPGPPSEKAWQPGWTVNVEGSGELFRWNVSDLGGLGCGLKNRSSEGPSSPSGKLMSPKLYVWAKDRPEIWEGEPPCLPPRDSLNQSLSRDLTVAPGSTLWLSCGVPPDSVSRGPLSWTHVHPKGPKSLLSLELKDDRPARDMWVMGTSLMLPRATAQDAGKWYCHRGNLTMSFHLEITARPSRHHHHHH
binding to the K form of CLEC12A (CLEC12A K form): very weakly | binding to the K form weaker than to the Q form (CLEC12A K form): greater than 10,000 fold | binding to the Q form of CLEC12A (CLEC12A Q form): binds very well | CLEC12A binding EC50 (CLEC12A): 1.4 ng/mL | EC50 (CLEC12A; read-out: CLEC12A binding EC50): 0.0299 nM

B2: #440: fusion protein comprising an anti-CLEC12A VHH, an anti-CD33 scFv, and a CD19 ECD; SEQ ID NO:321 (protein)
chain: MEFGLSWVFLVALFRGVQCQVQLVQSGAEVKKPGESVKVSCKASGYTFTNYGMNWVKQAPGQGLEWMGWINTYTGEPTYADKFQGRVTMTTDTSTSTAYMEIRNLGGDDTAVYYCARWSWSDGYYVYFDYWGQGTSVTVSSGGGGSGGGGSGGGGSDIVMTQSPDSLTVSLGERTTINCKSSQSVLDSSTNKNSLAWYQQKPGQPPKLLLSWASTRESGIPDRFSGSGSGTDFTLTIDSPQPEDSATYYCQQSAHFPITFGQGTRLEIKGGGGSGGGGSGGGGSGGGGSQVQLQESGGGLVQAGGSLRLSCVASGSIRSINVMGWYRQAPGKQRELVAACASDGNTYYADSVKGRFTISRDNAEKTVYLQMNNLKPDDTAVYYCDANSRGNYYSGQGTQVTVSSTSGPGGQGAGGGGSGGGGSGGGGSGGGGSPEEPLVVKVEEGDTAALWCLKGTSDGPTQQLTWSRESPLKPFLKYSLGVPGLGVHVRPDAISVVIRNVSQQMGGFYLCQPGPPSEKAWQPGWTVNVEGSGELFRWNVSDLGGLGCGLKNRSSEGPSSPSGKLMSPKLYVWAKDRPEIWEGEPPCLPPRDSLNQSLSRDLTVAPGSTLWLSCGVPPDSVSRGPLSWTHVHPKGPKSLLSLELKDDRPARDMWVMGTSLMLPRATAQDAGKWYCHRGNLTMSFHLEITARPSRHHHHHH
binding to U937 cells [1]: capable of binding to U937 cells
